Reference: patent publication US20200017592A1
Read-outs that look alike come from different tables or passages of the source.

Experiments:
[1] = biological target: Macaca fascicularis IL-36R extracellular domain expressed with a C-terminal myc-myc-hexahistidine tag (mfIL-36R-MMH) (Macaca fascicularis); experiment: SPR Biacore 4000, mAb captured on anti-hFc, 37C
[2] = biological target: Macaca fascicularis IL-36R extracellular domain expressed with a C-terminal myc-myc-hexahistidine tag (Macaca fascicularis); experiment: SPR (Biacore 4000), mAb captured on anti-human Fc, 25°C
[3] = biological target: Macaca fascicularis IL-36R extracellular domain expressed with a C-terminal myc-myc-hexahistidine tag (Macaca fascicularis); experiment: SPR Biacore T200, mAb captured by anti-hFc, 25C, PBS-T pH 6.0
[4] = biological target: Macaca fascicularis IL-36R extracellular domain expressed with a C-terminal myc-myc-hexahistidine tag (Macaca fascicularis); experiment: SPR Biacore T200, mAb captured by anti-hFc, 25C, PBS-T pH 7.4
[5] = biological target: Macaca fascicularis IL-36R extracellular domain expressed with a C-terminal myc-myc-hexahistidine tag (Macaca fascicularis); experiment: SPR Biacore T200, mAb captured by anti-hFc, 37C, PBS-T pH 6.0
[6] = biological target: Macaca fascicularis IL-36R extracellular domain expressed with a C-terminal myc-myc-hexahistidine tag (Macaca fascicularis); experiment: SPR Biacore T200, mAb captured by anti-hFc, 37C, PBS-T pH 7.4
[7] = biological target: T1, human IL-36R (IL1RL2) on primary human cells (human) (UniProt Q9HB29); experiment: cell-based or functional assay
T1 sequence (looked up): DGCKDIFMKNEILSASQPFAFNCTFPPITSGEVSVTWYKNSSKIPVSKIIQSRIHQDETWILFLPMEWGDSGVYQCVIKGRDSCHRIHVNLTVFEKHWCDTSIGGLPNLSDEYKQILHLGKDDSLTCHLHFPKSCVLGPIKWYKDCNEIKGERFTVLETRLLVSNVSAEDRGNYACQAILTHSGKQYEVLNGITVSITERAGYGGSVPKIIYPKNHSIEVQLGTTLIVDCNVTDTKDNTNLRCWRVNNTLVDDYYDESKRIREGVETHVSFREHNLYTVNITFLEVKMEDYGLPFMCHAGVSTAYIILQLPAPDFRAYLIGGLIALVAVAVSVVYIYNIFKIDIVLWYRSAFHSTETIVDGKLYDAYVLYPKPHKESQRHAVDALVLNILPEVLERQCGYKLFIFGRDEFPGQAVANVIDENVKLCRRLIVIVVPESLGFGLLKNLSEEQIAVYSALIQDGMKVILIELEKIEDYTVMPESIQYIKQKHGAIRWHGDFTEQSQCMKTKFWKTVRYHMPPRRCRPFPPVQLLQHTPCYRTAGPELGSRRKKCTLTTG

[8] = biological target: full-length human IL-36R on cells (human) (UniProt Q9HB29)
[9] = biological target: full-length human IL-36R on cells (human) (UniProt Q9HB29); remark: listed apart in the source
[10] = biological target: Macaca fascicularis IL-36R on cells (Macaca fascicularis); experiment: cell-based or functional assay
[11] = biological target: full-length human IL-36R on cells (human) (UniProt Q9HB29); experiment: cell-based or functional assay

Chain of Macaca fascicularis IL-36R on cells (Macaca fascicularis) (chain, as listed by the source): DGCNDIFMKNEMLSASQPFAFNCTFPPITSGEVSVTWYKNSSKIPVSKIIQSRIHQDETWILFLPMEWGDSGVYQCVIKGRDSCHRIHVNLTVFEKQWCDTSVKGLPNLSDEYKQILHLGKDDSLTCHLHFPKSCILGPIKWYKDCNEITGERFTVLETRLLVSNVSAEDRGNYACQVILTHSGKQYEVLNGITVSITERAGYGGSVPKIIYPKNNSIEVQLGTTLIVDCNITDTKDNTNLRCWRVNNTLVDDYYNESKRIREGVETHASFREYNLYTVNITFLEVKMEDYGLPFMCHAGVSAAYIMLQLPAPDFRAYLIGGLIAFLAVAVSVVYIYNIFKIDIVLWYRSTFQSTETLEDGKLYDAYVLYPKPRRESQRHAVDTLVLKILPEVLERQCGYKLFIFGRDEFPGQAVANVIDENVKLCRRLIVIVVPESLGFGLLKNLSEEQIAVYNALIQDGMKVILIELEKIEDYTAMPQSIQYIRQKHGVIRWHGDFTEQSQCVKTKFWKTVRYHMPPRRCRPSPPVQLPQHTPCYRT

| Binder | 100 nM mfIL-36R-MMH Bound (RU) [1] [RU] | Kd [1] [nM] | koff [1] [s⁻¹] | kon [1] [M⁻¹ s⁻¹] | t1/2 [1] [min] | 100 nM mfIL-36R-MMH Bound (RU) [2] [RU] | Kd [2] [nM] | koff [2] [s⁻¹] | kon [2] [M⁻¹ s⁻¹] | t½ [2] [min] | 100 nM mfIL-36R-MMH Bound (RU) [3] [RU] | koff [3] [s⁻¹] | t½ [3] [min] | 100 nM mfIL-36R-MMH Bound (RU) [4] [RU] | koff [4] [s⁻¹] | t½ [4] [min] | 100 nM mfIL-36R-MMH Bound (RU) [5] [RU] | koff [5] [s⁻¹] | t½ [5] [min] | 100 nM mfIL-36R-MMH Bound (RU) [6] [RU] | other results |
| --- | --- | --- | --- | --- | --- | --- | --- | --- | --- | --- | --- | --- | --- | --- | --- | --- | --- | --- | --- | --- | --- |
| H4H14709P (antibody, human IgG4 S228P, kappa, V domains shown) VH: EVQLVESGGGLVQPGGSLRLSCAASGFTFSDYAMSWVRQAPGKGLEWVSGISGNGGDTYYGDFVKGRFTISRDNSKNTLYLQMNSLRGEDTAAYFCVIDLDYWGQGTLVTVSS VL: DIQMTQSPSTLSASEGDRVTITCRASQSISSWLAWYQQKPGKAPRLLIYKASILGDGVPSRFSGSGSGTEFTLTISSLQPDDFATYYCHQYNSYLWTFGQGTKVEIKR | 66 | 17.7 | 0.000871 | 49100 | 13 | 34 | 14.3 | 0.000401 | 28000 | 29 | 48 | 0.00112 | 10 | 57 | 0.000519 | 22 | 80 | 0.00294 | 4 | 92 | koff [6]: 0.000987 s⁻¹; t½ [6]: 12 min |
| H4H14700P2 (antibody, human IgG4 S228P, kappa, V domains shown) VH: EVQLVESGGGLVQPGRSLRLSCAASGFTFDDYAMHWVRQTPGKGLEWVSVISWNSDVIAYSDSVKGRFTISRDNAKNSLYLQMNSLGTEDTALYYCAKGHNWNFFDYWGQGTLVTVSS VL: EIVLTQSPATLSLSPGERATLSCRASQSVSSYLAWYQQKPGQAPRLLIYNVANRATDIPARFSGSGSGTDFTLTISGLEPEDFAVYFCQQRSNWPLTFGGGTKVEIKR | 67 | 27.8 | 0.00198 | 71400 | 6 | 48 | 10.6 | 0.000635 | 60200 | 18 | 80 | 0.00171 | 7 | 91 | 0.000821 | 14 | 97 | 0.00333 | 3 | 108 | koff [6]: 0.0018 s⁻¹; t½ [6]: 6 min |
| H4H14708P2 (antibody, human IgG4 S228P, kappa, V domains shown) VH: EVQLVESGGDLVQPGRSLRLSCAASGFTFDDYAMHWVRQAPGKGLEWVSVISWNSDVIAYSDSVKGRFTISRDNAKNSLYLQMNSLRTEDTALYYCTKGHKWSFFDYWGQGTLVTVSS VL: EIVLTQSPATLSLSPGERATLSCRASQSISSYLAWYQQKPGQAPRLLIFNVANRATDIPARFSGSGSGTDFTLTISSLEPEDFAVYYCQQRSNWPLTFGGGTKVEIKR | 75 | 30.4 | 0.00181 | 59600 | 6 | 51 | 12.9 | 0.000579 | 45000 | 20 | 47 | 0.0015 | 8 | 57 | 0.000752 | 15 | 58 | 0.0031 | 4 | 66 | koff [6]: 0.00169 s⁻¹; t½ [6]: 7 min |
| rhIL-36β/IL-1F8 [aa5-157] (ligand, human, UniProt Q9NZH7 5-157, looked up) REAAPKSYAIRDSRQMVWVLSGNSLIAAPLSRSIKPVTLHLIACRDTEFSDKEKGNMVYLGIKGKDLCLFCAEIQGKPTLQLKLQGSQDNIGKDTCWKLVGIHTCINLDVRESCFMGTLDQWGIGVGRKKWKSSFQHHHLRKKDKDFSSMRTN |  |  |  |  |  |  |  |  |  |  |  |  |  |  |  |  |  |  |  |  | EC50[M], IL-8 production, Intestinal MyoFibroblasts (InMyoFib), hIL-36β [7]: 1.18e-09 M; EC50[M], IL-8 production, Normal Epidermal Keratinocytes (NHEK), hIL-36β [7]: 1.18e-09 M; EC50[M], IL-8 production, PB-derived CD14+ Monocytes, hIL-36β [7]: 2.63e-09 M |
| human IL-36β (ligand, UniProt Q9NZH7 5-157, looked up) REAAPKSYAIRDSRQMVWVLSGNSLIAAPLSRSIKPVTLHLIACRDTEFSDKEKGNMVYLGIKGKDLCLFCAEIQGKPTLQLKLQGSQDNIGKDTCWKLVGIHTCINLDVRESCFMGTLDQWGIGVGRKKWKSSFQHHHLRKKDKDFSSMRTN |  |  |  |  |  |  |  |  |  |  |  |  |  |  |  |  |  |  |  |  | EC50 (read off the curve) of hIL36β, NFκB-luciferase RLU, in the presence of 0.1 nM REGN6489 [8]: 0.005 nM; EC50 (read off the curve) of hIL36β, NFκB-luciferase RLU, in the presence of 0.3 nM REGN6489 [8]: 0.01 nM; EC50 (read off the curve) of hIL36β, NFκB-luciferase RLU, in the presence of 1 nM REGN6489 [8]: 0.03 nM; EC50 (read off the curve) of hIL36β, NFκB-luciferase RLU, in the presence of 3 nM REGN6489 [8]: 0.1 nM; EC50 (read off the curve) of hIL36β, NFκB-luciferase RLU, in the presence of 9 nM REGN6489 [8]: 0.3 nM; EC50 (read off the curve) of hIL36β, NFκB-luciferase RLU, no antibody [8]: 0.002 nM; EC50 (read off the curve) of hIL36β, NFκB-luciferase RLU, in the presence of 0.3 nM REGN6490 [9]: 0.008 nM; EC50 (read off the curve) of hIL36β, NFκB-luciferase RLU, in the presence of 1 nM REGN6490 [9]: 0.02 nM; EC50 (read off the curve) of hIL36β, NFκB-luciferase RLU, in the presence of 3 nM REGN6490 [9]: 0.08 nM; EC50 (read off the curve) of hIL36β, NFκB-luciferase RLU, in the presence of 9 nM REGN6490 [9]: 0.3 nM; EC50 (read off the curve) of hIL36β, NFκB-luciferase RLU, no antibody [9]: 0.003 nM; EC50, NFκB-luciferase, HEK293/NFκB-luc/MfIL-36R cells [10]: 0.27 nM; EC50, NFκB-luciferase, HEK293/NFκB-luc/hIL-36R cells [11]: 0.014 nM |
| H4H14757P (antibody, human IgG4 S228P, kappa, V domains shown) VH: EVQLVESGGGLVQPGRSLRLSCTASGFTFDDYAMHWVRQAPGKGLEWVSGIRWNGGSIGYVDSVKGRFTISRDNAKKSLHLQMNSLKTEDTALYYCAKDIGDILTGFYGEYGMDVWGQGTTVTVSS VL: DIQMTQSPSSLSASEGDRVTITCRASQSISSYLNWYQQKAGKAPNLLIYAASSLQSGVPSRFSGSGSGTEYTLTISSLQPEDFATYYCQQSYIIPYTFGQGTKLEIKR | 4 |  |  |  |  | 1 |  |  |  |  | 1 |  |  | 1 |  |  | -1 |  |  | 0 |  |
| H4H14758P (antibody, human IgG4 S228P, kappa, V domains shown) VH: EVQLVESGGGLVQPGRSLRLSCAASGFTFDDYAMHWVRQAPGKGLEWVSSVRWNGGIIGYADSVKGRFTISRDNAKNSLYLQMNSLRPEDTALYYCAKDIGDVLTGYYGEYGMDVWGQGTTVTVSS VL: DIQMTQSPSSLSASVGDRVTIACRASQSITTYLNWYQQKPGKAPKLLIYAASSLQSGVPSRFSGSGSGTDFTLTISSLQPEDFATYYCQQSYISPYTFGQGTKLEIKR | -1 |  |  |  |  | -1 |  |  |  |  | 1 |  |  | 0 |  |  | 1 |  |  | 0 |  |
| H4H14728P (antibody, human IgG4 S228P, kappa, V domains shown) VH: QVQLQESGPGLVKPSQTLSLTCTVSGGSISSADYYWSWIRQHPGKGLEWIGSIYYTGSTYYNPSLKSRLTISIDTSENQFSLKLTSLTAADTAVYYCASEEANWGSHFDSWGQGTLVTVSS VL: DIQMTQSPSSLSASVGDRVTITCRASQSIDNFLNWYQQKPGKAPKLLIYAASSLQSGVPSRFSGSGSGTDFTLTISSLQPEDFASYYCQHSHSAHPITFGQGTRLEIKR | 77 | 20.7 | 0.00134 | 64800 | 9 | 51 | 7.87 | 0.000406 | 51500 | 28 | 68 | 0.000616 | 19 | 74 | 0.000544 | 21 | 91 | 0.00191 | 6 | 98 | koff [6]: 0.00139 s⁻¹; t½ [6]: 8 min |
| H4H14731P (antibody, human IgG4 S228P, kappa, V domains shown) VH: QLQLQESGPGLVKPSETLSLTCTVSGGSISSSNYYWGWIRQPPGKRLEWIGSIYYSGSTYYNPSLKTRVTISVDTSKNQFSLKLTSVTAADTAVYYCAREEAAALTHFDFWGQGTLVTVSS VL: DIQMTQSPSSLSASVGDRVTITCRASQSISNYLNWYQQKPGKAPKLLIFAASSLQSGVPSRFSGSGSGTDFTLTISSLQPEDFATYYCQHSHSSHPITFGQGTRLEIKR | 41 | 48.2 | 0.00322 | 66800 | 4 | 33 | 15.9 | 0.000951 | 59800 | 12 | 23 | 0.00152 | 8 | 36 | 0.00137 | 8 | 40 | 0.00538 | 2 | 43 | koff [6]: 0.00361 s⁻¹; t½ [6]: 3 min |
